Reference: paper PMC10256154, “An unbroken network of interactions connecting flagellin domains is required for motility in viscous environments” (PLOS Pathogens, 2023)

Target: the molecule itself
Assay: SEC; Superdex 200 Increase 10/300 GL; recombinant full-length FliC proteins after NiNTA, PBS buffer

B1: full-length FliC Δ204–205 of P. aeruginosa PAO1, recombinant (natural protein)
chain: MALTVNTNIASLNTQRNLNASSNDLNTSLQRLTTGYRINSAKDDAAGLQISNRLSNQISGLNVATRNANDGISLAQTAEGALQQSTNILQRIRDLALQSANGSNSDADRAALQKEVAAQQAELTRISDTTTFGGRKLLDGSFGTTSFQVGSNAYETIDISLQNASASAIGSYQVGSNGAGTVASVAGTATASGIASGTVNLVGQVKNIAIAAGDSAKAIAEKMDGAIPNLSARARTVFTADVSGVTGGSLNFDVTVGSNTVSLAGVTSTQDLADQLNSNSSKLGITASINDKGVLTITSATGENVKFGAQTGTATAGQVAVKVQGSDGKFEAAAKNVVAAGTAATTTIVTGYVQLNSPTAYSVSGTGTQASQVFGNASAAQKSSVASVDISTADGAQNAIAVVDNALAAIDAQRADLGAVQNRFKNTIDNLTNISENATNARSRIKDTDFAAETAALSKNQVLQQAGTAILAQANQLPQAVLSLLR
notes: Cloned in pET28-a with a C-terminal polyhistidine tag; source: E. coli BL21(DE3), purified (NiNTA, size-exclusion chromatography)
**Q.** How did the “stoichiometry N” value turn out when B1 was run?
**A.** Its value is 2.
